In data set [1] the test system is O=P(O)(O)O[C@H]1[C@H](OP(=O)(O)O)[C@@H](OP(=O)(O)O)[C@H](OP(=O)(O)O)[C@@H](OP(=O)(O)O)[C@H]1OP(=O)(O)O. The data set can be described thus: purified protein. The following applies: 0-300 µM IP6; ATP-dependent; 2 µg protein; 6 h.
Data set [2] has as its target T1, GST-Vip1^1-535 (Saccharomyces cerevisiae, UniProt Q06685).
T1 construct: kinase domain residues 1-535, GST tag kept, E. coli Rosetta, purified
The data set can be described thus: IP7 formation, PAGE with Toluidine Blue stain. Format: biochemical. The note with it: 1 µg protein; positive control enzyme.

The results in this text go back to PMC4177672, “The Vip1 Inositol Polyphosphate Kinase Family Regulates Polarized Growth and Modulates the Microtubule Cytoskeleton in Fungi” (PLoS Genetics, 2014).

As usually defined, the Km is the concentration of substrate that gives half-maximal velocity.

T1 sequence (Q06685 1-535): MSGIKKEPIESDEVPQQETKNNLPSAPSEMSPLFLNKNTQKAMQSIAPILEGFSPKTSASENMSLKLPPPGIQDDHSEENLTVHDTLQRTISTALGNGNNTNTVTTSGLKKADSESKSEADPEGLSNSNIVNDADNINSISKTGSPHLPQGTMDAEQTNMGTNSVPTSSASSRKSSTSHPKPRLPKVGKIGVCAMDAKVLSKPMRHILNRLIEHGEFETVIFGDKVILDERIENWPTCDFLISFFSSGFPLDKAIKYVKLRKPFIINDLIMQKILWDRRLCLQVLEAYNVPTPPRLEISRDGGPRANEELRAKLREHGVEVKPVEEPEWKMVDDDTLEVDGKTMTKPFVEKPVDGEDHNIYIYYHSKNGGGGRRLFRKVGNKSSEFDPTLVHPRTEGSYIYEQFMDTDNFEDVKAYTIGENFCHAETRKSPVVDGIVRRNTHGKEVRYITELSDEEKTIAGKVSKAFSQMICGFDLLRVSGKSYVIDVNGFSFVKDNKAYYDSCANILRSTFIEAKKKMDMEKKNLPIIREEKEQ

Consider “GST-Asp1 (full length) (Schizosaccharomyces pombe 972h-; H397A)”, for which, in data set [1], the Km was determined as 57.32 µM.
Take `O=P(O)(O)O[C@H]1[C@H](OP(=O)(O)O)[C@@H](OP(=O)(O)O)[C@H](OP(=O)(O)O)[C@@H](OP(=O)(O)O)[C@H]1OP(=O)(O)O` [IP6]: in data set [2], the “IP7 formation, PAGE with Toluidine Blue stain” value is listed as “S. cerevisiae Vip1 for which enzymatic activity had been demonstrated was used as a positive control”.
Consider “GST-Asp1 (full length) (Schizosaccharomyces pombe 972h-)”, for which the Michaelis constant (Km) in data set [1] is given as 58.18 µM.
